Experiments:
human Langerin (human) [1] = molecular target: human Langerin (human) (UniProt Q9UJ71); experiment: immunogold electron microscopy, 4° C., Langerhans cells of epidermal cell suspensions; isotype control for DCGM4
human Langerin (human) [2] = molecular target: human Langerin (human) (UniProt Q9UJ71); experiment: cell-based or functional assay
human Langerin (human) [3] = molecular target: human Langerin (human) (UniProt Q9UJ71); experiment: immunogold electron microscopy, 4° C., 5 nm gold goat anti-mouse IgG, Langerhans cells of epidermal cell suspensions

Sequence of UniProt Q9UJ71 (Q9UJ71 whole entry V278A): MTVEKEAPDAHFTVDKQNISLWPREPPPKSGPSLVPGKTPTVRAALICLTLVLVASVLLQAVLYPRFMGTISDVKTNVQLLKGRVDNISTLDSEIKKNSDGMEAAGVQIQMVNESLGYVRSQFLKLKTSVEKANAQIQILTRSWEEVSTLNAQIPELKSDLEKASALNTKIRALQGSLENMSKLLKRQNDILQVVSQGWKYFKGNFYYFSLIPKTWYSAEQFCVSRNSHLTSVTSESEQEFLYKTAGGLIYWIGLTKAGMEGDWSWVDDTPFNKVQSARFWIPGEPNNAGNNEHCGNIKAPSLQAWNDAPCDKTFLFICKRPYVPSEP

Substance | gold granules/100 µm membrane (granules/100 µm) (human Langerin (human) [1]) | half-life (t1/2) of DCGM4 at the cytomembrane (human Langerin (human) [2]) [min] | internalization (decrease of cell-surface-bound antibody by FACS) (human Langerin (human) [2]) [%] | internalization rate k (human Langerin (human) [2]; scale: °/min) | gold granules/100 µm membrane (gold granules/100 µm membrane) (human Langerin (human) [3])
control mouse IgG1 (Sigma) (antibody) | 1.3 | – | – | – | –
monoclonal antibody DCGM4 | – | 4.5 | 75 | 15.3 | 162

Source: patent US20110033929A1
